Laboratory results: article PMC5473807, “Distribution and kinetics of the Kv1.3-blocking peptide HsTX1[R14A] in experimental rats” (Scientific Reports, 2017)
Like-named read-outs stand apart in the source and are kept apart here.

Legend:
[1] = Tolerability in the animal experiments; format: in vivo, rat; conditions: rats, injections of up to 0.1 mg peptide/kg body weight, also anesthetised animals
[2] = Blood clearance kinetics, arterial blood and PET; format: in vivo; conditions: whole blood, rat, read-out: blood clearance half-life corrected for the metabolites
Method: The procedures are described in detail elsewhere, [34], [35]. Rats were anesthetised using 9% ± 1% desflurane in 30% oxygen and placed on a heat mat. The animals were kept warm under anesthesia until the end of the scan with a total duration of 4 h. The anesthetised animals were localised in a prone position in the axial direction of the scanner. A needle catheter was installed in a lateral tail vein or subcutaneously in the neck for injection using a syringe pump. PET studies were performed with the dedicated small animal PETs NanoPET/CT (Mediso, Budapest, Hungary) and microPET^(R) P4 (Siemens Medical Solutions, Erlangen, Germany). […] Three-dimensional regions of interest (ROI) were determined for subsequent data analysis. The standardised uptake values (SUV, g/mL) and standardised uptake ratios (SUR, as ratio of the SUVs of the tissue of interest and the blood SUV, derived from a region over the caudal arteria abdominalis and vena cava) were used to quantify the activity uptake and kinetics.
The analysis of [^64Cu]Cu-NOTA-HsTX1[R14A] degradation was analysed in one rat after single intravenous injection. […] The samples were again centrifuged (3 min at 14,000 × g), resulting in the precipitate the protein bound fraction (plasma proteins) and the supernatants (e.g. plasma water fraction) were analysed by radio-TLC with RP18 aluminium foil, MeCN/0.1% TFA mixed with H2O/0.1% TFA (v/v 1:1). […]

[3] = Metabolite analysis by radio-TLC; format: in vivo; conditions: rat, i.v., one rat
Method: (§1) The analysis of [^64Cu]Cu-NOTA-HsTX1[R14A] degradation was analysed in one rat after single intravenous injection. The gas-anaesthetised (8% desflurane, 30% oxygen, air) rat was prepared on a heating bed for the blood sampling. A needle catheter was inserted in a tail vein and fixed for the injection of the radiotracer and supplementation of the withdrawn volume by E-153 (electrolyte infusion solution). A small incision on the right hind limb was made and a small superficial artery was exposed. A thin tube (polyethylene, 0.3 mm inner and 0.6 mm outer diameter) was inserted, moved to the femoral artery and fixed. Arterial blood samples were collected at 1, 3, 5, 10, 20, 30, 120 min p.i of the [^64Cu]Cu-NOTA-HsTX1[R14A]. After the end of experiment the anaesthetised animals were euthanised by infusion of KCl solution. For the differentiation of the activity distribution in the blood compartments (Fig. 3b) were blood samples centrifuged (3 min at 14,000 × g) to obtain the plasma (plasma total and blood cells in the precipitate). One kidney was homogenised with PBS (30% w/v) and then centrifuged as described for the blood samples. Urine was treated in analogy. All the supernatants from blood, kidney and urine samples were mixed with equal volume of MeCN to precipitate the protein fraction. The samples were again centrifuged (3 min at 14,000 × g), resulting in the precipitate the protein bound fraction (plasma proteins) and the supernatants (e.g. plasma water fraction) were analysed by radio-TLC with RP18 aluminium foil, MeCN/0.1% TFA mixed with H2O/0.1% TFA (v/v 1:1). The TLC plates were measured by radioluminography as described above. Aliquots of the whole blood samples and of all supernatants were measured for the ^64Cu activity concentration in a well counter.

[4] = Distribution in the blood compartments; format: in vivo; conditions: rat, i.v., 0-4 h
Method: as §1

[5] = Stability of the 64Cu complex against EDTA; format: physicochemical; conditions: 0.1 M aqueous EDTA solution, radio-TLC on iTLC-SA plates
Method: The radiolabelling yield and stability of ^64Cu-labelled peptide conjugate were monitored with radio-TLC (thin layer chromatography). Thin layer chromatograms were scanned by using a thin layer analyser (Rita Star, Raytest, Germany). The purity of the radiolabelled peptide was assayed using analytical RP-HPLC. Radio-HPLC was performed on a Knauer Smartline System fitted with an activity detector (Ramona Star, Raytest, Germany) using an Aqua C18 column (Phenomenex, 4.6 mm × 250 mm, 5 µm, 125 Å) with a gradient eluent of H2O + 0.05% TFA (A) and acetonitrile + 0.05% TFA (B); in 20 min 0–60% of B, 10 min 60–95% of B, 1 mL/min.
^64Cu-NOTA-HsTX1[R14A] was prepared by incubating ~1.2–24 nmol (5–100 µg) of NOTA-HsTX1[R14A]/100 µL (1 mg/mL H2O stock solution) with ^64CuCl2 (~35–55 MBq) dissolved in 0.2 mL of 0.1 M 2-(N-morpholino)ethansulfonic acid (MES)/NaOH buffer (pH 6.0) at 37 °C for 30 min. Formation of the ^64Cu^II complex was verified by radio-TLC on iTLC-SA plates (instant TLC medium impregnated with […], Agilent Technology) using H2O + 0.1% HCOOH as mobile phase (^64Cu(HCOO)2, R f = 0.4, ^64Cu-NOTA-peptide, R f = 0). The stability of the ^64Cu^II formed was assessed in the presence of 0.1 M EDTA solution. Radio-TLC was performed with iTLC-SA plates (Agilent Technology) using 0.1 M aqueous EDTA solution [(^64Cu]Cu-NOTA-peptide, R f = 0, ^64Cu-EDTA, R f = 0.9).

SMILES: CSCC[C@@H]1NC(=O)[C@@H]2CSSC[C@H](NC(=O)[C@H](CO)NC(=O)[C@H](C)NC(=O)COCCOCCNC(=O)CN3CCN(CC(=O)O)CCN(CC(=O)O)CC3)C(=O)N[C@@H](CCCNC(=N)N)C(=O)N[C@@H]([C@@H](C)O)C(=O)N3CCC[C@H]3C(=O)N[C@@H](CCCCN)C(=O)N[C@@H](CC(=O)O)C(=O)N[C@H]3CSSC[C@H](NC(=O)[C@H](CCCCN)NC(=O)[C@H](CCCNC(=N)N)NC(=O)[C@H](CC(N)=O)NC1=O)C(=O)N[C@@H](CCCCN)C(=O)N[C@H]1CSSC[C@H](NC(=O)[C@@H]4CCCN4C(=O)[C@H](CC(=O)O)NC(=O)[C@H](C)NC3=O)C(=O)N[C@@H](C)C(=O)N[C@@H](CCCCN)C(=O)N[C@@H](CCC(=O)O)C(=O)N[C@@H]([C@@H](C)O)C(=O)NCC(=O)N[C@@H](CSSC[C@@H](C(N)=O)NC(=O)[C@H](CCCNC(=N)N)NC(=O)[C@H](CC(N)=O)NC1=O)C(=O)N1CCC[C@H]1C(=O)N[C@@H](Cc1ccc(O)cc1)C(=O)NCC(=O)N[C@@H](CCCCN)C(=O)N2 [[^64Cu]Cu-NOTA-HsTX1[R14A], metal not drawn]
- toxic effects [1]: did not show toxic effects
- half-life ([2]; iv, i.v.): 37 min
- half-life ([2]; sc, s.c.): 51 min
- plasma activity still present as original compound ([3]; arterial blood plasma, after 4 h): 85%
- metabolic stability in arterial blood plasma ([3]; first 2 h): without detectable radioactive metabolic products
- original compound in the kidneys ([3]; kidney extract, 4 h): 31%
- original compound in the urine ([3]; urine, 4 h): 15%
- fraction bound to plasma proteins ([4]; MeCN precipitate, % of total blood activity): 5 ± 3%
- fraction in blood plasma ([4]; centrifugation 3 min at 14,000 x g): 82 ± 4 % of the whole blood ^64Cu activity
- fraction in plasma water ([4]; supernatant after MeCN precipitation, % of total blood activity): 75 ± 3%
- time for which the 64Cu(II) complex is stable with EDTA [5]: at least 24 h
